{"source": "paper doi:10.1101/2025.08.13.669967", "about": "“Cryo-EM protein structure without purification” (bioRxiv, 2025)", "proteins": {"B1": {"name": "Arabidopsis thaliana Pyridoxal 5'-phosphate synthase-like subunit PDX1.2 (natural protein, UniProt Q9ZNR6 1-314, looked up)", "chain": "MADQAMTDQDQGAVTLYSGTAITDAKKNHPFSVKVGLAQVLRGGAIVEVSSVNQAKLAESAGACSVIVSDPVRSRGGVRRMPDPVLIKEVKRAVSVPVMARARVGHFVEAQILESLAVDYIDESEIISVADDDHFINKHNFRSPFICGCRDTGEALRRIREGAAMIRIQGDLTATGNIAETVKNVRSLMGEVRVLNNMDDDEVFTFAKKISAPYDLVAQTKQMGRVPVVQFASGGITTPADAALMMQLGCDGVFVGSEVFDGPDPFKKLRSIVQAVQHYNDPHVLAEMSSGLENAMESLNVRGDRIQDFGQGSV", "modifications": "translation mixture supplemented with FluoroTect GreenLys reagent (fluorescent detection)", "notes": "Pyridoxal 5'-phosphate synthase-like subunit PDX1.2 of Arabidopsis thaliana, Uniprot Q9ZNR6; synthetic gene (Genscript) in the pT7-DHFR Control plasmid in place of DHFR (NdeI/NotI); source: PURE (PureExpress In Vitro Protein Synthesis kit, New England Biolabs) cell-free expression, 25 µl reaction; in crude lysate or after small-scale clean-up (spin filter, benzonase, reverse His-purification); …"}}, "target": "the molecule itself", "assay": "native gel or EMSA; Native PAGE of the 25 µl PURE cell-free expression reaction with FluoroTect GreenLys fluorescent detection, compared to a no plasmid DNA control", "data": [{"protein": "B1", "values": [{"measurement": "stoichiometry N", "result": 12}]}]}
